Patent US9938510B2, “Photobacterium sp. alpha-2-6-sialyltransferase variants” (The Regents of the University of California, priority 2014, dated 2018)

Experiment: Apparent sialyltransferase kinetics, GalNAcα2AA as acceptor
Type: biochemical
Description: Reactions were carried out in duplicate at 20° C. for 20 minutes in a total volume of 10 μL in a proper buffer at the optimal pH according to the pH profile of the wild-type enzyme (see, Ding, 2011, supra). When LacβMU was used as an acceptor, the conditions were: Tris-HCl buffer (200 mM, pH 8.0), enzyme (0.3 μM), varied concentrations of LacβMU (0.1, 0.25, 0.4, 1.0, 2.0, 4.0, and 6.0 mM) with a fixed concentration of CMP-Neu5Ac (1.0 mM) or varied concentrations of CMP-Neu5Ac (0.1, 0.25, 0.4, 1.0, 2.0, 4.0, and 6.0 mM) with a fixed concentration of LacβMU (1.0 mM). When GalNAcα2AA was used as an acceptor, the conditions were: NaOAc-HOAc buffer (200 mM, pH 5.0), enzyme (6 μM), varied concentrations of GalNAcα2AA (0.5, 0.8, 1.0, 2.0, 4.0, 8.0, and 10.0 mM) and a fixed concentration of CMP-Neu5Ac (4.0 mM) or varied concentrations of CMP-Neu5Ac (0.5, 1.0, 2.0, 4.0, 5.0, 8.0, and 10.0 mM) with a fixed concentration of GalNAcα2AA (1.0 mM). When GalNAcαSer was used as an acceptor, the conditions were: Tris-HCl buffer (200 mM, pH 8.0), enzyme (0.6 μM), varied concentrations of GalNAcαSer (0.1, 0.25, 0.5, 1.0, 2.0, 4.0, 8.0, and 10.0 mM) and a fixed concentration of CMP-Neu5Ac (2.0 mM). […]

B1: A366G: Photobacterium sp. JH-ISH-224 α2-6-sialyltransferase residues 15-501, A366G point mutation, C-terminal His6; SEQ ID NO: 2 (protein)
chain: CNNSEENTQSIIKNDINKTIIDEEYVNLEPINQSNISFTKHSWVQTCGTQQLLTEQNKESISLSVVAPRLDDDEKYCFDFNGVSNKGEKYITKVTLNVVAPSLEVYVDHASLPTLQQLMDIIKSEEENPTAQRYIAWGRIVPTDEQMKELNITSFALINNHTPADLVQEIVKQAQTKHRLNVKLSSNTAHSFDNLVPILKELNSFNNVTVTNIDLYDDGSAEYVNLYNWRDTLNKTDNLKIGKDYLEDVINGINEDTSNTGTSSVYNWQKLYPANYHFLRKDYLTLEPSLHELRDYIGDSLKQMQWDGFKKFNSKQQELFLSIVNFDKQKLQNEYNSSNLPNFVFTGTTVWGGNHEREYYAKQQINVINNAINESSPHYLGNSYDLFFKGHPGGGIINTLIMQNYPSMVDIPSKISFEVLMMTDMLPDAVAGIASSLYFTIPAEKIKFIVFTSTETITDRETALRSPLVQVMIKLGIVKEENVLFWA
modifications: C-terminal His6; Synthetic Psp26ST(15-501) A366G
With B1 the “catalytic efficiency (kcat/Km) higher than the wild-type enzyme” value was 1.3 fold.
